Earlier results in publication PMC10561060.

Target: chemoreceptor C-terminal pentapeptide (Escherichia coli)
Assay: ITC

Row | Substance | Kd [µM]
1 | CheB (from UniProt P07330) | 160
2 | CheR (from UniProt P07364) | 2
